Read-outs that look alike come from different tables or passages of the source. One block for each binder: values may come before it.
Assays:
4H3631-bN = target: T1, 4H3631-bN; experiment: two-hybrid library CCNG1;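 also: natural log of median RNA to DNA barcode read ratio; higher means stronger binding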
T1 chain: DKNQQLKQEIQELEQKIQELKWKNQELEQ

4H619-bN = target: T2, 4H619-bN; experiment: two-hybrid library CCNG1;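 also: natural log of median RNA to DNA barcode read ratio; higher means stronger binding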
T2 chain: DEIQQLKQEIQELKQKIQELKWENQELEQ

4H3638-bN = target: T3, 4H3638-bN; experiment: two-hybrid library CCNG1;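 also: natural log of median RNA to DNA barcode read ratio; higher means stronger binding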
T3 chain: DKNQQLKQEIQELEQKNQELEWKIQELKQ

4H3414-bN = target: T4, 4H3414-bN; experiment: two-hybrid library CCNG1;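 also: natural log of median RNA to DNA barcode read ratio; higher means stronger binding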
T4 chain: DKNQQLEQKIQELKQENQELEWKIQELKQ

4H570-bN = target: T5, 4H570-bN; experiment: two-hybrid library CCNG1;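 also: natural log of median RNA to DNA barcode read ratio; higher means stronger binding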
T5 chain: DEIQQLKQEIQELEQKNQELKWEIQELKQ

4H3817-bN = target: T6, 4H3817-bN; experiment: two-hybrid library CCNG1;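 also: natural log of median RNA to DNA barcode read ratio; higher means stronger binding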
T6 chain: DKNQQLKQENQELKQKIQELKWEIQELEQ

4H584-bN = target: T7, 4H584-bN; experiment: two-hybrid library CCNG1
T7 chain: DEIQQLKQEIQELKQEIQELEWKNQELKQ

4H3974-bN = target: T8, 4H3974-bN; experiment: two-hybrid library CCNG1
T8 chain: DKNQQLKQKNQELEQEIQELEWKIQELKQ

4H906-bN = target: T9, 4H906-bN; experiment: two-hybrid library CCNG1
T9 chain: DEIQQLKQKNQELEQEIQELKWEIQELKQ

4H850-bN = target: T10, 4H850-bN; experiment: two-hybrid library CCNG1
T10 chain: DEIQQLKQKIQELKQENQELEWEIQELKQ

4H3915-AA = target: T11, 4H3915-AA; experiment: two-hybrid library CCmax; settings: mean of both orientations
T11 chain: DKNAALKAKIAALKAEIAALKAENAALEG

4H2903-AA = target: T12, 4H2903-AA; experiment: two-hybrid library CCmax; settings: mean of both orientations
T12 chain: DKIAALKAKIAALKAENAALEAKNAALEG

4H324-AA = target: T13, 4H324-AA; experiment: two-hybrid library CCmax; settings: mean of both orientations
T13 chain: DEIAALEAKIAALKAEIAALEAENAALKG

4H380-AA = target: T14, 4H380-AA; experiment: two-hybrid library CCmax; settings: mean of both orientations
T14 chain: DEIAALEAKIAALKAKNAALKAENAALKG

4H3939-AA = target: T15, 4H3939-AA; experiment: two-hybrid library CCmax; settings: mean of both orientations
T15 chain: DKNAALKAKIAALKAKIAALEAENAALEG

4H2760-AA = target: T16, 4H2760-AA; experiment: two-hybrid library CCmax; settings: mean of both orientations
T16 chain: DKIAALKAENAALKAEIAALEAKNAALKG

4H464-AA = target: T17, 4H464-AA; experiment: two-hybrid library CCmax; settings: mean of both orientations
T17 chain: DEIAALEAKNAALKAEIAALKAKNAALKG

4H2947-AA = target: T18, 4H2947-AA; experiment: two-hybrid library CCmax; settings: mean of both orientations
T18 chain: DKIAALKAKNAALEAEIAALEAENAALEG

4H3969-AA = target: T19, 4H3969-AA; experiment: two-hybrid library CCmax; settings: mean of both orientations
T19 chain: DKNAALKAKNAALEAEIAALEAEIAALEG

4H3595-AA = target: T20, 4H3595-AA; experiment: two-hybrid library CCmax; settings: mean of both orientations
T20 chain: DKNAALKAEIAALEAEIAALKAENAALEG

4H341-AA = target: T21, 4H341-AA; experiment: two-hybrid library CCmax; settings: mean of both orientations
T21 chain: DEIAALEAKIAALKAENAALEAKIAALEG

4H446-AA = target: T22, 4H446-AA; experiment: two-hybrid library CCmax; settings: mean of both orientations
T22 chain: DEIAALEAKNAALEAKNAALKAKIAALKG

4H2774-AA = target: T23, 4H2774-AA; experiment: two-hybrid library CCmax; settings: mean of both orientations
T23 chain: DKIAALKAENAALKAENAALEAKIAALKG

4H2728-AA = target: T24, 4H2728-AA; experiment: two-hybrid library CCmax; settings: mean of both orientations
T24 chain: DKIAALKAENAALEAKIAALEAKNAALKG

4H3129-AA = target: T25, 4H3129-AA; experiment: two-hybrid library CCmax
T25 chain: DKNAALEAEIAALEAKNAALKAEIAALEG

4H3777-AA = target: T26, 4H3777-AA; experiment: two-hybrid library CCmax; settings: mean of both orientations
T26 chain: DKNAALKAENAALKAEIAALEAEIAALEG

4H2621-AA = target: T27, 4H2621-AA; experiment: two-hybrid library CCmax
T27 chain: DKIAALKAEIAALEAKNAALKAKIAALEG

4H2699-AA = target: T28, 4H2699-AA; experiment: two-hybrid library CCmax; settings: mean of both orientations
T28 chain: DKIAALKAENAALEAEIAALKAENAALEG

4H3619-AA = target: T29, 4H3619-AA; experiment: two-hybrid library CCmax; settings: mean of both orientations
T29 chain: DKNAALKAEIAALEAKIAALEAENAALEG

4H3782-AA = target: T30, 4H3782-AA; experiment: two-hybrid library CCmax; settings: mean of both orientations
T30 chain: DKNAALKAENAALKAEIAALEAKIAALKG

4H3094-AA = target: T31, 4H3094-AA; experiment: two-hybrid library CCmax; settings: mean of both orientations
T31 chain: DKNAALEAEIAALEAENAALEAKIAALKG

4H3414-AA = target: T32, 4H3414-AA; experiment: two-hybrid library CCmax; settings: mean of both orientations
T32 chain: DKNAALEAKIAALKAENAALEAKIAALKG

4H483-AA = target: T33, 4H483-AA; experiment: two-hybrid library CCmax; settings: mean of both orientations
T33 chain: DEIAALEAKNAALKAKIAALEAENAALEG

4H432-AA = target: T34, 4H432-AA; experiment: two-hybrid library CCmax; settings: mean of both orientations
T34 chain: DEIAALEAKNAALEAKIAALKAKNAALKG

4H3629-AA = target: T35, 4H3629-AA; experiment: two-hybrid library CCmax; settings: mean of both orientations
T35 chain: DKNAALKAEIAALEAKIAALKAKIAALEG

4H2961-AA = target: T36, 4H2961-AA; experiment: two-hybrid library CCmax; settings: mean of both orientations
T36 chain: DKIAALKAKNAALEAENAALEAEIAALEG

4H3974-AA = target: T37, 4H3974-AA; experiment: two-hybrid library CCmax; settings: mean of both orientations
T37 chain: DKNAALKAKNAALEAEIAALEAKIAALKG

4H3449-AA = target: T38, 4H3449-AA; experiment: two-hybrid library CCmax; settings: mean of both orientations
T38 chain: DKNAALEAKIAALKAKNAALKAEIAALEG

4H63-AA = target: T39, 4H63-AA; experiment: two-hybrid library CCmax; settings: mean of both orientations
T39 chain: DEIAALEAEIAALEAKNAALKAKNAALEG

4H3049-AA = target: T40, 4H3049-AA; experiment: two-hybrid library CCmax; settings: mean of both orientations
T40 chain: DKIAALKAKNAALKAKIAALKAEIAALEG

4H2580-AA = target: T41, 4H2580-AA; experiment: two-hybrid library CCmax
T41 chain: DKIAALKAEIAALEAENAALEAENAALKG

4H2604-AA = target: T42, 4H2604-AA; experiment: two-hybrid library CCmax; settings: mean of both orientations
T42 chain: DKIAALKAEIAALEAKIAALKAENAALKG

P9 = target: T43, P9; experiment: two-hybrid library CC1; settings: mean of both orientations
T43 chain: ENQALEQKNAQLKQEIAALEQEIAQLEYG

P8 = target: T44, P8; experiment: two-hybrid library CC1; settings: mean of both orientations
T44 chain: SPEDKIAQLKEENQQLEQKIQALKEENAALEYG

P6SC2 = target: T45, P6SC2; experiment: two-hybrid library CC1; settings: mean of both orientations
T45 chain: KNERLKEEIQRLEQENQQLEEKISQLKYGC

P7 = target: T46, P7; experiment: two-hybrid library CC1; settings: mean of both orientations
T46 chain: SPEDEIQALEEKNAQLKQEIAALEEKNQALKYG

P6mS = target: T47, P6mS; experiment: two-hybrid library CC1; settings: mean of both orientations
T47 chain: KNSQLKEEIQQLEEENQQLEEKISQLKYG

P6 = target: T48, P6; experiment: two-hybrid library CC1
T48 chain: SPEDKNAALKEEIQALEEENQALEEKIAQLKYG

P7mS = target: T49, P7mS; experiment: two-hybrid library CC1; settings: mean of both orientations
T49 chain: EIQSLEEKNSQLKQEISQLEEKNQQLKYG

P6SC1 = target: T50, P6SC1; experiment: two-hybrid library CC1; settings: mean of both orientations
T50 chain: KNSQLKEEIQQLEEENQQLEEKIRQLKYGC

P8mS = target: T51, P8mS; experiment: two-hybrid library CC1; settings: mean of both orientations
T51 chain: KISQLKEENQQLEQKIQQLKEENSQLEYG

interaction score (4H3631-bN): -1.25 | interaction score (4H619-bN): -2.07 | interaction score (4H3638-bN): -1.41 | interaction score (4H3414-bN): -0.0983 | interaction score (4H570-bN): -0.223 | interaction score (4H3817-bN): -0.982 | interaction score (4H584-bN): -1.04 | interaction score (4H3974-bN): -0.178 | interaction score (4H906-bN): -1.04 | interaction score (4H850-bN): 0.132
B1: 4H3414-bN (peptide)
chain: DKNQQLEQKIQELKQENQELEWKIQELKQ

interaction score (4H3915-AA): -1.18 | interaction score (4H2903-AA): 1.71 | interaction score (4H324-AA): 1.33 | interaction score (4H380-AA): -0.998 | interaction score (4H3939-AA): -0.531 | interaction score (4H2760-AA): -0.432 | interaction score (4H464-AA): -1.44 | interaction score (4H2947-AA): -1.47 | interaction score (4H3969-AA): -1.35 | interaction score (4H3595-AA): 0.312 | interaction score (4H341-AA): 2.39 | interaction score (4H446-AA): -1.41 | interaction score (4H2774-AA): -0.116 | interaction score (4H2728-AA): 1.6 | interaction score (4H3129-AA): -1.64 | interaction score (4H3777-AA): -1.64 | interaction score (4H2621-AA): 1.1 | interaction score (4H2699-AA): -0.173 | interaction score (4H3619-AA): 0.162 | interaction score (4H3782-AA): -1.63 | interaction score (4H3094-AA): 1.09 | interaction score (4H3414-AA): 2.21 | interaction score (4H483-AA): -1.55 | interaction score (4H432-AA): -1.5 | interaction score (4H3629-AA): 0.71 | interaction score (4H2961-AA): -0.217 | interaction score (4H3974-AA): -0.826 | interaction score (4H3449-AA): -0.832 | interaction score (4H63-AA): -0.787 | interaction score (4H3049-AA): 0.214
B2: 4H2621-AA (peptide)
chain: DKIAALKAEIAALEAKNAALKAKIAALEG

Further lines, the binder ahead of its results:

B3: 4H2580-AA (peptide)
chain: DKIAALKAEIAALEAENAALEAENAALKG
interaction score (4H3915-AA): -0.741 | interaction score (4H2903-AA): -0.221 | interaction score (4H324-AA): 1.93 | interaction score (4H380-AA): 1.77 | interaction score (4H3939-AA): -0.303 | interaction score (4H2760-AA): -1.47 | interaction score (4H464-AA): -0.738 | interaction score (4H2947-AA): -1.82 | interaction score (4H3969-AA): -1.28 | interaction score (4H3595-AA): -1.29 | interaction score (4H341-AA): 0.477 | interaction score (4H446-AA): -1.11 | interaction score (4H2774-AA): -1.28 | interaction score (4H2728-AA): -1.69 | interaction score (4H3129-AA; mean of both orientations): -1.21 | interaction score (4H3777-AA): -1.49 | interaction score (4H2621-AA; mean of both orientations): -0.357 | interaction score (4H2699-AA): -1.81 | interaction score (4H2580-AA): 0.179 | interaction score (4H3619-AA): -1.26 | interaction score (4H3782-AA): -1.52 | interaction score (4H3094-AA): -1.36 | interaction score (4H3414-AA): -1.09 | interaction score (4H483-AA): -1.33 | interaction score (4H432-AA): -1.04 | interaction score (4H2604-AA): 1.41 | interaction score (4H3629-AA): -0.787 | interaction score (4H2961-AA): -1.82 | interaction score (4H3974-AA): -1.2 | interaction score (4H3449-AA): 0.308 | interaction score (4H63-AA): 0.964 | interaction score (4H3049-AA): -0.107

B4: P6 (peptide)
chain: SPEDKNAALKEEIQALEEENQALEEKIAQLKYG
interaction score (P9): -1.98 | interaction score (P8): -2.37 | interaction score (P6SC2): -2.56 | interaction score (P7): -0.929 | interaction score (P6mS): -2.76 | interaction score (P6): -2.71 | interaction score (P7mS): -2.6 | interaction score (P6SC1): -2.74 | interaction score (P8mS): -2.62

— article PMC10397247
